The target of the experiment is UBE2L3 (human, UniProt P68036 1-154). As to the kind of experiment: ITC. On the technique in general: ITC needs no label: the signal is the heat of the interaction.
Chain of UBE2L3 (P68036 whole entry): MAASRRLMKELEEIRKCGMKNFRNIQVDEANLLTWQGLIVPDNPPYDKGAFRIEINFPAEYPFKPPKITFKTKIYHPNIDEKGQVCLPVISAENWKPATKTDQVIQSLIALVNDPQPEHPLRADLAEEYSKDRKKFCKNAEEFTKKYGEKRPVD

B1: CUL9^ARIH-RBR (domain or fragment)
chain: SPEAVATLASLQLPAGRTMSPQEVEGLMKQTVRQVQETLNLEPDVAQHLLAHSHWGAEQLLQSYSEDPEPLLLAAGLCVHQAQAVPVRPDHCPVCVSPLGCDDDLPSLCCMHYCCKSCWNEYLTTRIEQNLVLNCTCPIADCPAQPTGAFIRAIVSSPEVISKYEKALLRGYVESCSNLTWCTNPQGCDRILCRQGLGCGTTCSKCGWASCFNCSFPEAHYPASCGHMSQWVDDGGYYDGMSVEAQSKHLAKLISKRCPSCQAPIEKNEGCLHMTCAKCNHGFCWRCLKSWKPNHKDYYNCSAMVSKAARQEKRFQDYNERCTFHHQAREFAVNLRNRVSAIHEVPPPRSFTFLNDACQGLEQARKVLAYACVYSFYSQDAEYMDVVEQQTENLELHTNALQILLEETLLRCRDLASSLRLLRADCLSTGMELLRRIQERLLAILQHSAQDFRVGLQSPSVEAWEAKGPNMPGSQPQASSGPEAEEEEEDDEDDVPEWQQDEFDEELDNDSFSYDESENLDQETFFFGDEEEDEDEAYD
What is called Kd is the free concentration of one partner at which half of the binding sites on the other are occupied at equilibrium, for simple one-to-one binding. On to B1, for which the Kd was 12 µM.

The values are drawn from PMC11257990 (2024).
